In patent US8846873B2, “Antibodies directed to GPNMB and uses thereof” (Celldex Therapeutics, Inc., priority 2004, dated 2014):

Tests used:
GPNMB [1] = target: T1, GPNMB (Homo sapiens, UniProt Q14956); test: BiaCore 2000 biosensor binding of hybridoma supernatant mAb to GPNMB
T1 construct: made in house; host or cells: HEK 293
T1 sequence (Q14956 23-492): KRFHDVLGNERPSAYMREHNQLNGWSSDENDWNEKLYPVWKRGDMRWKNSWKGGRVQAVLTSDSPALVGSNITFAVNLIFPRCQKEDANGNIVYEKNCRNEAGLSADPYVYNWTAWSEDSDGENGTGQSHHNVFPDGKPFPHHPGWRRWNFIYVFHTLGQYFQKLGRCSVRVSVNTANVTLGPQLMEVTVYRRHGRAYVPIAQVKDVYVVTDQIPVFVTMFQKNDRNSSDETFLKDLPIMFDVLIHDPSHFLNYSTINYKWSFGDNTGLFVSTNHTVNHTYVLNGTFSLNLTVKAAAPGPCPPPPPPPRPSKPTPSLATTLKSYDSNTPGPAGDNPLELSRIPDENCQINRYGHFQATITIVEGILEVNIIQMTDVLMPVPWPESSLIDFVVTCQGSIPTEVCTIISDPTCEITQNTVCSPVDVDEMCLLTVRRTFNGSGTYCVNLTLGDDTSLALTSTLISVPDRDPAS
Method: Certain Hybridoma cell supernatants (29) were analyzed for binding to GPNMB by BiaCore® 2000 biosensor equipped with a research-grade CMS sensor chip. A 1:25 dilution of cell supernatant was passed over a protein A surface for 5 min followed by washing the surface for 10 mins. Subsequently, GPNMB was injected for 90 sec. over the surface at a concentration of 880 nM followed by dissociation. Double-referenced binding data were obtained by subtracting the signal from a control flow cell and subtracting the baseline drift of a buffer injected just prior to the antigen injection. GPNMB binding ddata for each mAb was normalized for the amount of mAb captured on each surface. Normalized, drift corrected responses were also measured. The sensorgrams were fit to a simple 1:1 kinetic model.

GPNMB [2] = target: T1, GPNMB; test: Binning of antibodies (Luminex competitive binding); settings: three bins of six anti-GPNMB antibodies
Method: Certain antibodies, described herein were binned in accordance with the protocol described in U.S. Patent Application Publication No. 20030157730. MxhIgG conjugated beads are prepared for coupling to primary antibody. The volume of supernatant needed is calculated using the following formula: (n+10)×50 μL (where n=total number of samples on plate). Where the concentration is known, 0.5 μg/mL is used. Bead stock is gently vortexed, then diluted in supernatant to a concentration of 2500 of each bead per well or 0.5×10^5/mL and incubated on a shaker in the dark at RT overnight, or 2 hours if at a known concentration of […]. Following aspiration, 50 μL of each bead is added to each well of filter plate, then washed once by adding 100 μL/well wash buffer and aspirating. Antigen and controls are added to filter plate 50 μL/well then covered and allowed to incubate in the dark for 1 hour on shaker. Following a wash step, a secondary unknown antibody is added at 50 μL/well using the same dilution (or concentration if known) as is used for the primary antibody. The plates are then incubated in the dark for 2 hours at RT on shaker followed by a wash step. Next, 50 μL/well biotinylated mxhIgG diluted 1:500 is added and allowed to incubate in the dark for 1 hour on shaker at RT. […]

SK-Mel-2 cells [3] = test: Cell cycle analysis (BrdU / propidium iodide flow cytometry); type: cell-based, human; settings: SK-Mel-2, 24 hour, 1000 ng/mL
Method: (§1) Briefly, cells were pulsed at the indicated times with 30 μM of bromodeoxyuridine (BrdU, Sigma) for 30 min, harvested, fixed and permeabilized in methanol. Nascent DNA synthesis was detected by anti-bromodeoxyuridine-FITC (BD Biosciences, San Jose, Calif.) staining. Total DNA content was detected using propidium iodide (PI, Sigma). For apoptosis analysis, cells were treated as above and labeled with Annexin V-FITC followed by propidium iodide exclusion using the Annexin V-FITC Apoptosis Detection kit I (BD PharMingen, San Diego, Calif.) according to the manufacturer's protocols. Flow cytometry (as described in the previous Example) was used to assay both cell cycle and apoptosis studies.
(§2) DNA synthesis and cell cycle progression were determined by flow cytometry (Table 52).

TK-10 cells [4] = test: as above; type: cell-based, human; settings: TK-10, 24 hour, 1000 ng/mL
Method: as §1, §2

SK-Mel-2 cells [5] = test: Apoptosis analysis (Annexin V-FITC / propidium iodide); type: cell-based, human; settings: SK-Mel-2, 48 hour, 1000 ng/mL
Method: as §1
(§3) To investigate this possibility, analysis of apoptosis using Annexin-V surface binding and loss of propidium iodide (PI) exclusion was performed.

TK-10 cells [6] = test: as above; type: cell-based, human; settings: TK-10, 48 hour, 1000 ng/mL
Method: as §1, §3

CG56972-expressing cells = test: Internalization of cell surface bound antibodies (flow cytometry); type: cell-based; settings: incubation with CG56972-expressing cells
Method: Internalization of cell surface bound antibodies was assessed by a modified flow cytometry procedure. […] After washing cells, incubation was shifted to 37° C. for 1 hr to allow internalization of bound antibodies. Cells that remained on ice (total surface bound) or that were incubated at 37° C. […] Labeled cells were analyzed by flow cytometry as described above. The percentage of antibody internalized was determined using the GMRs and the following formula: Percent internalized=Total surface bound (4° C.)−Total surface bound (37° C.)/Total surface bound (4° C.)×100

SK-Mel-2 cells [7] = test: Flow cytometry of CR011 binding to cell surface CG56972/GPNMB; set-up: species or system human; settings: SK-MEL-2, positive control
Method: Flow Cytometry: Quantitative analysis of GPNMB expression on the cell surface of cell lines was determined by flow cytometry. […] Cells were fixed in 1% paraformaldehyde/PBS and examined on a Becton Dickinson FACSCalibur flow cytometer. Data analysis was performed with Becton Dickinson Cell Quest software version 3.3 and the geometric mean fluorescence intensity ratio (GMR) was determined for each cell type.
Flow Cytometry: Quantitative analysis of CG56972 expression on the surface of cell lines was determined by flow cytometry (FACS). […] Cells were fixed in 1% paraformaldehyde/PBS and examined on a Becton Dickinson FACSCalibur flow cytometer. Data analysis was performed with Becton Dickinson Cell Quest software version 3.3 and the geometric mean fluorescence intensity ratio (GMR) was determined for each cell type.

[8] = mAb captured on protein A, GPNMB 880 nM, 1:1 kinetic model

B1: Mab1.15.1 (protein, listed as Homo sapiens)
chain: QVQLQESGPGLVKPSQTLSLTCTVSGGSISSFNYYWSWIRHHPGKGLEWIGYIYYSGSTYSNPSLKSRVTISVDTSKNQFSLTLSSVTAADTAVYYCARGYNWNYFDYWGQGTLVTVSSA
binding to GPNMB (GPNMB [1]; 1:25 dilution of cell supernatant): strong binding
Kd (GPNMB [1]; [8]): 52 nM
ka (GPNMB [1]; [8]): 16524 M⁻¹ s⁻¹
kd (GPNMB [1]; [8]): 0.000855 s⁻¹
Bin (GPNMB [2]): Bin 2
% G1 (SK-Mel-2 cells [3]): 63.6%
% G2/M (SK-Mel-2 cells [3]): 6.4%
% S-phase (SK-Mel-2 cells [3]): 25.2%
% Sub-G1 (SK-Mel-2 cells [3]): 0.5%
% G1 (TK-10 cells [4]): 42.0%
% G2/M (TK-10 cells [4]): 6.3%
% S-phase (TK-10 cells [4]): 39.8%
% Sub-G1 (TK-10 cells [4]): 0.3%
% AnnV+/PI+ UR (SK-Mel-2 cells [5]): 0.45%
% AnnV+/PI− LR (SK-Mel-2 cells [5]): 4.74%
% AnnV−/PI+ UL (SK-Mel-2 cells [5]): 0.36%
% AnnV+/PI+ UR (TK-10 cells [6]): 0.34%
% AnnV+/PI− LR (TK-10 cells [6]): 0.55%
% AnnV−/PI+ UL (TK-10 cells [6]): 0.83%
internalization (CG56972-expressing cells): internalized
cell surface staining (SK-Mel-2 cells [7]): strong cell surface staining
